Results on one substance are retold here after publication PMC5978004.

For this assay, the target named is human MALT1 (mammalian expression) (human) (UniProt Q9UDY8).
Chain of UniProt Q9UDY8 (Q9UDY8 whole entry): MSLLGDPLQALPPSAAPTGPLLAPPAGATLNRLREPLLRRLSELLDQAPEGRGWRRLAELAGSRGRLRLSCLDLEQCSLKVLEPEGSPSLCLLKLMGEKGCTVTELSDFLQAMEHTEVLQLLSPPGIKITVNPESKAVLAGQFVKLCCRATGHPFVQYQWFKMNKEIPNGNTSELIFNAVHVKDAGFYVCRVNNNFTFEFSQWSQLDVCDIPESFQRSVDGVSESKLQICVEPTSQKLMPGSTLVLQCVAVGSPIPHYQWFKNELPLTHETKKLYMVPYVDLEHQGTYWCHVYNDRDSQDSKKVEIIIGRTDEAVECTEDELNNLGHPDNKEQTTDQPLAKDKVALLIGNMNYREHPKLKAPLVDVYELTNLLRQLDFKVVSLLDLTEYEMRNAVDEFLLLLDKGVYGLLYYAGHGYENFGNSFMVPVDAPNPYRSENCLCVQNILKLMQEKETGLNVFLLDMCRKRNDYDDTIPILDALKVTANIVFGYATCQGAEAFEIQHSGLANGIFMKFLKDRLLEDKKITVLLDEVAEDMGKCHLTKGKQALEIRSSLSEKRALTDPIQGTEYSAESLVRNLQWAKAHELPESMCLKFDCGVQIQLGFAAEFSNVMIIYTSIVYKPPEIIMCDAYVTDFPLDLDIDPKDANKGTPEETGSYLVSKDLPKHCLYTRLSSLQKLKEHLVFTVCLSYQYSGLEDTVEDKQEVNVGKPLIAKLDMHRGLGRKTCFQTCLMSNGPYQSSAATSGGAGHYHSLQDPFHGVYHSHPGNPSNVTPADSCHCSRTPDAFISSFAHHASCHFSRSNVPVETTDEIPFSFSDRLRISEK

In turn, “Nematostella vectensis Bcl10 (NvBcl10), E-tagged, in pCAGGS (natural protein)” came in with a human MALT1-dependent NF-κB luciferase reporter induction in MALT1-deficient HEK293T cells with or without human MALT1 of 2.5 fold.
